Results as given in PMC2275104 (Nucleic Acids Research, 2008).

T1: MCM E182R (Methanothermobacter thermautotrophicus, UniProt O27798 1-666, E182R)
T1 sequence: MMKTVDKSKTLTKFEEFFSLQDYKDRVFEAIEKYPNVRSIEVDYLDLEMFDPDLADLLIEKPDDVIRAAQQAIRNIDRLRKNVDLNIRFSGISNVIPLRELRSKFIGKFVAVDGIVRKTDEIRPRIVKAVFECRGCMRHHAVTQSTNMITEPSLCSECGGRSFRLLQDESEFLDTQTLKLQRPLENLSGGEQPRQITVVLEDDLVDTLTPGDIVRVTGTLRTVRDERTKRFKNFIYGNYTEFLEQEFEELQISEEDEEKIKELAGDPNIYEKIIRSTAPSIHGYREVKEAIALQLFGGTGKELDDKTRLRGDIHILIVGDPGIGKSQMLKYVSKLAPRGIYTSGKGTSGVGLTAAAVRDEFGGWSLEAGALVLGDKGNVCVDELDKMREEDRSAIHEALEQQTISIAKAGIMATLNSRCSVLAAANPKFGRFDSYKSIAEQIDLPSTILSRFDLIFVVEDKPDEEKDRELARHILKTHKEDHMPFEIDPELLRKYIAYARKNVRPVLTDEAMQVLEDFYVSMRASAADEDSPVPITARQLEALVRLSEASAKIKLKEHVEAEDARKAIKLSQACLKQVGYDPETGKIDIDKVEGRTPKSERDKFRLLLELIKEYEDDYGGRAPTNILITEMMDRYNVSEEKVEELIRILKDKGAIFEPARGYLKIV

T2: MCM beta-finger mutant (Methanothermobacter thermautotrophicus, UniProt O27798 1-666, R227A;K229A)
T2 sequence: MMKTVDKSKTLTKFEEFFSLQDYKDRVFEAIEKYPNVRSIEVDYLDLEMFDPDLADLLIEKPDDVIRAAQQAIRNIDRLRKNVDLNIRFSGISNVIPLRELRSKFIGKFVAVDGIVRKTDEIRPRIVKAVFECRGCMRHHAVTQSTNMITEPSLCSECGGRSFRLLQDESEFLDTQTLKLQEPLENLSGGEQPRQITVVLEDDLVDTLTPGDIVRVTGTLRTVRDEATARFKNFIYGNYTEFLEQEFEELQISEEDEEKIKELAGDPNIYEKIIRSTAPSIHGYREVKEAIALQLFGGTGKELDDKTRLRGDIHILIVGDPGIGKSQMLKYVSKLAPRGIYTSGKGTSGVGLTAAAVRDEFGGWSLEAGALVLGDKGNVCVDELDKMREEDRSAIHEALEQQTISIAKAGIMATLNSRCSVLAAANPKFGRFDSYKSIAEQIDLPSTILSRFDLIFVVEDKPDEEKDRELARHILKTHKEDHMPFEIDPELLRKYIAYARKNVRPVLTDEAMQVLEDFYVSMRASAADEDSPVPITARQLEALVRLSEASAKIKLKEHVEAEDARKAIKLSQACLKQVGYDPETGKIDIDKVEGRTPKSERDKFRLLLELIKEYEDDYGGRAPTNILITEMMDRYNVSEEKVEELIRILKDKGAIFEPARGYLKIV

T3: MCM P193G (Methanothermobacter thermautotrophicus, UniProt O27798 1-666, P193G)
T3 sequence: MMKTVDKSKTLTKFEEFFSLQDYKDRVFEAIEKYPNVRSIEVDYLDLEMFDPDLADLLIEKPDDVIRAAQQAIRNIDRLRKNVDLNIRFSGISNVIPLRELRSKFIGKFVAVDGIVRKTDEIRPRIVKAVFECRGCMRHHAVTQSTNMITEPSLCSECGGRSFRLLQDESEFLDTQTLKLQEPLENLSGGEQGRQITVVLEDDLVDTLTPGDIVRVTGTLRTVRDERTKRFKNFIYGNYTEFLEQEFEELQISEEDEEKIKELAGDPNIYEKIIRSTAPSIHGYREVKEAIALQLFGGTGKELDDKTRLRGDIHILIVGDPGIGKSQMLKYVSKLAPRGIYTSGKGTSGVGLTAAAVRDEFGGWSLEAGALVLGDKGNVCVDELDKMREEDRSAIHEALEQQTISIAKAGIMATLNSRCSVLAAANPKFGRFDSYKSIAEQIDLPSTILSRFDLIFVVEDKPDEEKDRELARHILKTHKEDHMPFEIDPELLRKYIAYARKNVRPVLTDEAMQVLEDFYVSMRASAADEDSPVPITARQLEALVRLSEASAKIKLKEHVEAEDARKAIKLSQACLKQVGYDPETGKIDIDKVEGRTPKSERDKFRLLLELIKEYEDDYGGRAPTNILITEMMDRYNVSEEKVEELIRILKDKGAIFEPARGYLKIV


What was measured:
[1] = molecular target: M. thermautotrophicus MCM (MTH1770) (Methanothermobacter thermautotrophicus, UniProt O27798); details: labelled compound; Hepes-NaOH pH 7.5, 5 mM MgCl2, 60°C
[2] = molecular target: T1, MCM E182R; assay: fluorescence anisotropy
[3] = molecular target: T2, MCM beta-finger mutant; assay: fluorescence anisotropy
[4] = molecular target: T3, MCM P193G; assay: fluorescence anisotropy

Chain of M. thermautotrophicus MCM (MTH1770) (O27798 1-666): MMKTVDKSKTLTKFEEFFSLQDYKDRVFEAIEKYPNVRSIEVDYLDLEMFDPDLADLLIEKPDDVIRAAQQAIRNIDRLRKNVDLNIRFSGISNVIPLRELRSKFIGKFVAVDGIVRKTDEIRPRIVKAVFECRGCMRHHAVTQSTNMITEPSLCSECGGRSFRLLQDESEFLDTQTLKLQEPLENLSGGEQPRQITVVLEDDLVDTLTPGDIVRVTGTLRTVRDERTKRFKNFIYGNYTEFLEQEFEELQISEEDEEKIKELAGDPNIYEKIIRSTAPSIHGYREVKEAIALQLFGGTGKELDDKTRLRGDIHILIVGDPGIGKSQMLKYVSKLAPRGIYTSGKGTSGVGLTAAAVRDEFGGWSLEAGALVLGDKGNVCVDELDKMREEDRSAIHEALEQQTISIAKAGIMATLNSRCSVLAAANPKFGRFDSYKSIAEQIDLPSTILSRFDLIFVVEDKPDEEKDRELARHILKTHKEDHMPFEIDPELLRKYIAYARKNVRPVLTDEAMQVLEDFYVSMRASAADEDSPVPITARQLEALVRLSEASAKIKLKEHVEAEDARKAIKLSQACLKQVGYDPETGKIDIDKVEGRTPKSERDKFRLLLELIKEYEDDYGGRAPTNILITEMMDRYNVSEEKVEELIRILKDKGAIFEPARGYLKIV

| Molecule | % ATP cross-linked relative to wild type [1] | binding result [2] | binding result [3] | binding result [4] |
| --- | --- | --- | --- | --- |
| Nc1ncnc2c1ncn2[C@@H]1O[C@H](COP(=O)(O)OP(=O)(O)OP(=O)(O)O)[C@@H](O)[C@H]1O [ATP] | UV crosslinking of ATP to the various MCM proteins was performed |  |  |  |
| CGCAGATAACAGTTGTCCTGGAGAACGACCTGGTTGACACCCTCACACCC (ssDNA) [50-mer Cy3-ssDNA] |  | binds | no binding | binds |
